# Results taken from patent US20110052582A1 (Hoffmann-La Roche, published 2011).
# T1: Soluble CDCP1 extracellular domain (CDCP1-ECD) (SEQ ID NO:30) fused to Streptavidin Binding Protein (SBP) (human, UniProt Q9H5V8 30-663)
# T1 construct: also called SBP-CDCP1-ECD
# T1 sequence: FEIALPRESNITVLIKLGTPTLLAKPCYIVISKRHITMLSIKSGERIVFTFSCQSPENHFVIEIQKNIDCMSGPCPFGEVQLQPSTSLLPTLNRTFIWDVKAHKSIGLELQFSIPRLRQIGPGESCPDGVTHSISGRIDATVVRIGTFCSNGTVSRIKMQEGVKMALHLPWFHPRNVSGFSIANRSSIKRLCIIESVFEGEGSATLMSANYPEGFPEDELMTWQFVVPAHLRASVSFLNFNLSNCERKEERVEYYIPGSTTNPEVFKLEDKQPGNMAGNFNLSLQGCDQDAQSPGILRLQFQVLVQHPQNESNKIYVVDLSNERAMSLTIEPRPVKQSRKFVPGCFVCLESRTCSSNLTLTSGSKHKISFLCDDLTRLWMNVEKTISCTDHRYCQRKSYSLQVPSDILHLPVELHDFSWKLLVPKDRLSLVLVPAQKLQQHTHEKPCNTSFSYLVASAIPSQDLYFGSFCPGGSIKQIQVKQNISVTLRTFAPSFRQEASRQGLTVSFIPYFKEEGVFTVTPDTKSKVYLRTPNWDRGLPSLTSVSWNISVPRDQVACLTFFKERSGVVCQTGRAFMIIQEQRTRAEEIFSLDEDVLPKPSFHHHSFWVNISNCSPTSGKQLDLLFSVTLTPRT
# Molecular target: T1, Soluble CDCP1 extracellular domain …
# Test: ELISA on captured SBP-CDCP1-ECD, ratio relative to chimeric CUB4 (chHC4)
# Method: Soluble CDCP1 extracellular domain (CDCP1-ECD) (SEQ ID NO:30) fused to Streptavidin Binding Protein (SBP) was captured on a sreptavidine plate. To define optimal binding of the antibody to SBP-CDCP1-ECD, 384-well polystyrene plates (NUNC, streptavidin-coated) delivered by MicroCoat, Bernried, Germany (ID-No. 1734776-001) have been coated with pure and stepwise diluted HEK293 supernatant (in BSA/IMDM buffer: 100 mg/ml BSA Fraction V, Roche 10735078001, dissolved in Iscove's Modified Dulbeccos Medium). Using a calibration curve of mouse CUB4 antibodies the optimal dilution factor of the HEK293 supernatant in relation to the streptavidin binding capacity of the microtiter plate was identified. For the standard coating, SBP-CDCP1-ECD containing HEK293 supernatant was diluted (between 1:15 and 1:40) and incubated overnight at 2-8° C. (25 μl per well). Intensive washing of the microtiter plate is necessary to remove remaining unbound SBP-CDCP1-ECD.
# Humanized CUB4 antibodies and/or reference antibody (chimeric (chHC4) CUB4 antibody comprising human constant region and mouse VH and VL of SEQ ID NO:1 and 2) were tested either undiluted or using a 12-step-dilution. 12.5 μl per well of each sample was incubated for 90 min at room temperature. After intensive washing using PBS-T (0.1% Tween 20 in PBS) 25 μl of either goat anti-human IgG antibodies coupled with HRP (Jackson ImmunoResearch, Code No: 109-036-098, dilution 1:10000) for human antibodies were added and incubated for 1 hour. After intensive washing the binding of the antibodies was detected with ABTS tablets (Roche Diagnostics GmbH, Cat. No.: 1112422). Absorbance at 405 nm/492 nm was measured using a standard photometer.
Binder,relative binding ratio,binding result
"hHC4-a / hLC4-e (antibody, V domains shown) VH: EVQLVESGGGLVKPGGSLRLSCAASGFTFNSYGMSWVRQAPGKGLEWVSTISSGGSYTYYPDSVKGRFTISRDNAKNSLYLQMNSLRAEDTAVYYCARHPDYDGVWFAYWGQGTLVTVSS VL: DIQMTQSPSSLSASVGDRVTITCSVSSSVFYVHWYQQKPGKAPKLLIYDTSKLASGVPSRFSGSGSGTDFTFTISSLQPEDIATYYCQQWNSNPPTFGGGTKVEIK",0.46,
"hHC4-04 / hLC4-f (antibody, V domains shown) VH: EVQLLESGGGLVQPGGSLRLSCAASGFTFNSYGMSWVRQAPGKGLEWVSTISSGGSYTYYPDSVKGRFTISRDNSKNTLYLQMNSLRAEDTAVYYCARHPDYDGVWFAYWGQGTLVTVSS VL: DIQMTQSPSSLSASVGDRVTITCSVSSSVFYVHWYQQKPGKAPKLLIYDTSKLASGVPSRFSGSGSGTDYTFTISSLQPEDIATYYCQQWNSNPPTFGGGTKVEIK",0.37,
"hHC4-I / hLC4-e (antibody, V domains shown) VH: EVQLLESGGGLVQPGGSLRLSCAASGFTFNSYAMSWVRQAPGKGLEWVSAISSGGSYTYYADSVKGRFTISRDNSKNTLYLQMNSLRAEDTAVYYCAKHPDYDGVWFAYWGQGTLVTVSS VL: DIQMTQSPSSLSASVGDRVTITCSVSSSVFYVHWYQQKPGKAPKLLIYDTSKLASGVPSRFSGSGSGTDFTFTISSLQPEDIATYYCQQWNSNPPTFGGGTKVEIK",0.07,
"hHC4-a / hLC4-f (antibody, V domains shown) VH: EVQLVESGGGLVKPGGSLRLSCAASGFTFNSYGMSWVRQAPGKGLEWVSTISSGGSYTYYPDSVKGRFTISRDNAKNSLYLQMNSLRAEDTAVYYCARHPDYDGVWFAYWGQGTLVTVSS VL: DIQMTQSPSSLSASVGDRVTITCSVSSSVFYVHWYQQKPGKAPKLLIYDTSKLASGVPSRFSGSGSGTDYTFTISSLQPEDIATYYCQQWNSNPPTFGGGTKVEIK",0.5,
"hHC4-07 / hLC4-f (antibody, V domains shown) VH: EVQLLESGGGLVQPGGSLRLSCAASGFTFNSYAMSWVRQAPGKGLEWVSTISSGGSYTYYPDSVKGRFTISRDNSKNTLYLQMNSLRAEDTAVYYCAKHPDYDGVWFAYWGQGTLVTVSS VL: DIQMTQSPSSLSASVGDRVTITCSVSSSVFYVHWYQQKPGKAPKLLIYDTSKLASGVPSRFSGSGSGTDYTFTISSLQPEDIATYYCQQWNSNPPTFGGGTKVEIK",0.07,
"hHC4-K2 / hLC4-e (antibody, V domains shown) VH: EVQLVESGGGLVKPGGSLRLSCAASGFTFNSYGMSWVRQAPGKGLEWVSSISSGGSYTYYADSVKGRFTISRDNAKNSLYLQMNSLRAEDTAVYYCARHPDYDGVWFAYWGQGTLVTVSS VL: DIQMTQSPSSLSASVGDRVTITCSVSSSVFYVHWYQQKPGKAPKLLIYDTSKLASGVPSRFSGSGSGTDFTFTISSLQPEDIATYYCQQWNSNPPTFGGGTKVEIK",0.07,
"hHC4-H / hLC4-f (antibody, V domains shown, also called Humanized CUB4 Antibody No. 146) VH: EVQLVESGGGLVQPGGSLRLSCAASGFTFNSYGMSWVRQAPGKGLEWVATISSGGSYKYYVDSVKGRFTISRDNAKNSLYLQMNSLRAEDTAVYYCARHPDYDGVWFAYWGQGTLVTVSS VL: DIQMTQSPSSLSASVGDRVTITCSVSSSVFYVHWYQQKPGKAPKLLIYDTSKLASGVPSRFSGSGSGTDYTFTISSLQPEDIATYYCQQWNSNPPTFGGGTKVEIK",0.42,
"hHC4-07 / hLC4-e (antibody, V domains shown) VH: EVQLLESGGGLVQPGGSLRLSCAASGFTFNSYAMSWVRQAPGKGLEWVSTISSGGSYTYYPDSVKGRFTISRDNSKNTLYLQMNSLRAEDTAVYYCAKHPDYDGVWFAYWGQGTLVTVSS VL: DIQMTQSPSSLSASVGDRVTITCSVSSSVFYVHWYQQKPGKAPKLLIYDTSKLASGVPSRFSGSGSGTDFTFTISSLQPEDIATYYCQQWNSNPPTFGGGTKVEIK",0.07,
"hHC4-c / hLC4-e (antibody, V domains shown) VH: EVQLVESGGGLVQPGGSLRLSCAASGFTFNSYGMSWVRQAPGKGLEWVATISSGGSYTYYPDSVKGRFTISRDNAKNSLYLQMNSLRAEDTAVYYCARHPDYDGVWFAYWGQGTLVTVSS VL: DIQMTQSPSSLSASVGDRVTITCSVSSSVFYVHWYQQKPGKAPKLLIYDTSKLASGVPSRFSGSGSGTDFTFTISSLQPEDIATYYCQQWNSNPPTFGGGTKVEIK",0.25,
"hHC4-03 / hLC4-f (antibody, V domains shown) VH: EVQLLESGGGLVQPGGSLRLSCAASGFTFNSYGMSWVRQAPGKGLEWVSAISSGGSYTYYPDSVKGRFTISRDNSKNTLYLQMNSLRAEDTAVYYCAKHPDYDGVWFAYWGQGTLVTVSS VL: DIQMTQSPSSLSASVGDRVTITCSVSSSVFYVHWYQQKPGKAPKLLIYDTSKLASGVPSRFSGSGSGTDYTFTISSLQPEDIATYYCQQWNSNPPTFGGGTKVEIK",0.07,
"hHC4-04 / hLC4-e (antibody, V domains shown) VH: EVQLLESGGGLVQPGGSLRLSCAASGFTFNSYGMSWVRQAPGKGLEWVSTISSGGSYTYYPDSVKGRFTISRDNSKNTLYLQMNSLRAEDTAVYYCARHPDYDGVWFAYWGQGTLVTVSS VL: DIQMTQSPSSLSASVGDRVTITCSVSSSVFYVHWYQQKPGKAPKLLIYDTSKLASGVPSRFSGSGSGTDFTFTISSLQPEDIATYYCQQWNSNPPTFGGGTKVEIK",0.2,

# The next lines start with the values.
relative binding ratio,binding result,Binder
0.34,,"hHC4-c / hLC4-f (antibody, V domains shown) VH: EVQLVESGGGLVQPGGSLRLSCAASGFTFNSYGMSWVRQAPGKGLEWVATISSGGSYTYYPDSVKGRFTISRDNAKNSLYLQMNSLRAEDTAVYYCARHPDYDGVWFAYWGQGTLVTVSS VL: DIQMTQSPSSLSASVGDRVTITCSVSSSVFYVHWYQQKPGKAPKLLIYDTSKLASGVPSRFSGSGSGTDYTFTISSLQPEDIATYYCQQWNSNPPTFGGGTKVEIK"
,no binding,"hHC4-K / hLC4-e (antibody, V domains shown) VH: EVQLVESGGGLVKPGGSLRLSCAASGFTFNSYGMSWVRQAPGKGLEWVSSISSGGSYIYYADSVKGRFTISRDNAKNSLYLQMNSLRAEDTAVYYCARHPDYDGVWFAYWGQGTLVTVSS VL: DIQMTQSPSSLSASVGDRVTITCSVSSSVFYVHWYQQKPGKAPKLLIYDTSKLASGVPSRFSGSGSGTDFTFTISSLQPEDIATYYCQQWNSNPPTFGGGTKVEIK"
0.27,,"hHC4-d / hLC4-e (antibody, V domains shown) VH: EVQLLESGGGLVQPGGSLRLSCAASGFTFNSYGMSWVRQAPGKGLEWVSTISSGGSYTYYPDSVKGRFTISRDNSKNTLYLQMNSLRAEDTAVYYCAKHPDYDGVWFAYWGQGTLVTVSS VL: DIQMTQSPSSLSASVGDRVTITCSVSSSVFYVHWYQQKPGKAPKLLIYDTSKLASGVPSRFSGSGSGTDFTFTISSLQPEDIATYYCQQWNSNPPTFGGGTKVEIK"
,no binding,"hHC4-b / hLC4-f (antibody, V domains shown) VH: EVQLVESGGGLVKPGGSLRLSCAASGFTFNSYSMNWVRQAPGKGLEWVSSISSGGSYIYYADSVKGRFTISRDNAKNSLYLQMNSLRAEDTAVYYCARHPDYDGVWFAYWGQGTLVTVSS VL: DIQMTQSPSSLSASVGDRVTITCSVSSSVFYVHWYQQKPGKAPKLLIYDTSKLASGVPSRFSGSGSGTDYTFTISSLQPEDIATYYCQQWNSNPPTFGGGTKVEIK"
,no binding,"hHC4-b / hLC4-e (antibody, V domains shown) VH: EVQLVESGGGLVKPGGSLRLSCAASGFTFNSYSMNWVRQAPGKGLEWVSSISSGGSYIYYADSVKGRFTISRDNAKNSLYLQMNSLRAEDTAVYYCARHPDYDGVWFAYWGQGTLVTVSS VL: DIQMTQSPSSLSASVGDRVTITCSVSSSVFYVHWYQQKPGKAPKLLIYDTSKLASGVPSRFSGSGSGTDFTFTISSLQPEDIATYYCQQWNSNPPTFGGGTKVEIK"
,no binding,"hHC4-K / hLC4-f (antibody, V domains shown) VH: EVQLVESGGGLVKPGGSLRLSCAASGFTFNSYGMSWVRQAPGKGLEWVSSISSGGSYIYYADSVKGRFTISRDNAKNSLYLQMNSLRAEDTAVYYCARHPDYDGVWFAYWGQGTLVTVSS VL: DIQMTQSPSSLSASVGDRVTITCSVSSSVFYVHWYQQKPGKAPKLLIYDTSKLASGVPSRFSGSGSGTDYTFTISSLQPEDIATYYCQQWNSNPPTFGGGTKVEIK"
